Laboratory results as given in patent US8686115B2, “Compositions and methods for quantitatively monitoring lipids” (The Board of Trustees of the University of Illinois, priority 2009, dated 2014).
Where a chain is given by its changes, count along the chain named. Numbers in names are those of the source. Each block holds one molecule with its values, some of them ahead of it.

Experiment: Equilibrium SPR binding to other phosphoinositide vesicles
Settings: POPC/POPS/phosphoinositide (77:20:3) vesicles; no significant SPR response signal with injection of 1 μM protein

Kd: > 1000 nM
B1: Wild Type: ENTH domain of epsin 1, amino acids 1-158, SEQ ID NO:1 (protein)
chain: MSTSSLRRQMKNIVHNYSEAEIKVREATSNDPWGPSSSLMSEIADLTYNVVAFSEIMSMIWKRLNDHGKNWRHVYKAMTLMEYLIKTGSERVSQQCKENMYAVQTLKDFQYVDRDGKDQGVNVREKAKQLVALLRDEDRLREERAHALKTKEKLAQTA
modifications: ENTH domain of Epsin 1.

Kd: > 1000 nM
B2: C96A/S4W (eENTH): engineered ENTH domain of epsin 1 with substitutions M10C, C96A, S4W, SEQ ID NO:2 (protein)
chain: B1 chain with S4W, M10C, C96A
modifications: Modified ENTH domain of Epsin 1.
